Assay results: paper PMC3005033
Read-outs that look alike come from different tables or passages of the source.

Tests used:
Experiment in all cases: co-IP
[1] = biological target: AMPA receptor subunit GluA1 (rat (endogenous in adult Sprague-Dawley rat brain)) (UniProt P19490)
[2] = biological target: AMPA receptor subunit GluA1 (rat (endogenous in adult Sprague-Dawley rat brain)) (UniProt P19490); remark: listed apart in the source
[3] = biological target: AMPA receptor subunit GluA1 (rat (endogenous in adult Sprague-Dawley rat brain)) (UniProt P19490); remark: listed apart in the source
[4] = biological target: AMPA receptor subunit GluA1 (rat (endogenous in adult Sprague-Dawley rat brain)) (UniProt P19490); remark: listed apart in the source
[5] = biological target: GluA2/3+GluA4 (rat (endogenous in adult Sprague-Dawley rat brain))
[6] = biological target: AMPA receptor subunit GluA2 (rat (endogenous in adult Sprague-Dawley rat brain)) (UniProt P19491)
Chain of AMPA receptor subunit GluA2 (rat (endogenous in adult Sprague-Dawley rat brain)) (P19491 22-883): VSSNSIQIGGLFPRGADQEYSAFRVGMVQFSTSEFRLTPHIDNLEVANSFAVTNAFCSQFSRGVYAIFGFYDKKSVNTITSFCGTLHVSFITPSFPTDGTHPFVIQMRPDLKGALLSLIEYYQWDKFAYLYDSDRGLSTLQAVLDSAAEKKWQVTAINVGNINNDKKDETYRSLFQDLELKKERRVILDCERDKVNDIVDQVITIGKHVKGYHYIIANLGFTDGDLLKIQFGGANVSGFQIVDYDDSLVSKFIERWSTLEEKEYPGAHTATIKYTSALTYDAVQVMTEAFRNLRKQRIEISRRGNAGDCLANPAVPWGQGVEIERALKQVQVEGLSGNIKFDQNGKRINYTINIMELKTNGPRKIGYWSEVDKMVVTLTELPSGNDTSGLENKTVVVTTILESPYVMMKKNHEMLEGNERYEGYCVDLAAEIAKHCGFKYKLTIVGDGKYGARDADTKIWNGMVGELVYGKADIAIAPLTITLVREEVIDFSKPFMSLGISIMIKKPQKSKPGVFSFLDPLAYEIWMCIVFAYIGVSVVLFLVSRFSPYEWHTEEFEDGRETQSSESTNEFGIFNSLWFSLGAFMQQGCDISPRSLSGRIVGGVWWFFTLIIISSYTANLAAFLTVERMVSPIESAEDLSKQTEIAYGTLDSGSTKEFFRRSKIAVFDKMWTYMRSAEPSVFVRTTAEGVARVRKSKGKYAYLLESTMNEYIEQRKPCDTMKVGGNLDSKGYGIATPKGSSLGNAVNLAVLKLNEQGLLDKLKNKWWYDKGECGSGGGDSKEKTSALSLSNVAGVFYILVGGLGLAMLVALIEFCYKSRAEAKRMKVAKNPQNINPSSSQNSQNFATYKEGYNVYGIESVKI

[7] = biological target: AMPA receptor subunit GluA2 (rat (endogenous in adult Sprague-Dawley rat brain)) (UniProt P19491); remark: listed apart in the source

Chain of AMPA receptor subunit GluA1 (rat (endogenous in adult Sprague-Dawley rat brain)) (P19490 19-907): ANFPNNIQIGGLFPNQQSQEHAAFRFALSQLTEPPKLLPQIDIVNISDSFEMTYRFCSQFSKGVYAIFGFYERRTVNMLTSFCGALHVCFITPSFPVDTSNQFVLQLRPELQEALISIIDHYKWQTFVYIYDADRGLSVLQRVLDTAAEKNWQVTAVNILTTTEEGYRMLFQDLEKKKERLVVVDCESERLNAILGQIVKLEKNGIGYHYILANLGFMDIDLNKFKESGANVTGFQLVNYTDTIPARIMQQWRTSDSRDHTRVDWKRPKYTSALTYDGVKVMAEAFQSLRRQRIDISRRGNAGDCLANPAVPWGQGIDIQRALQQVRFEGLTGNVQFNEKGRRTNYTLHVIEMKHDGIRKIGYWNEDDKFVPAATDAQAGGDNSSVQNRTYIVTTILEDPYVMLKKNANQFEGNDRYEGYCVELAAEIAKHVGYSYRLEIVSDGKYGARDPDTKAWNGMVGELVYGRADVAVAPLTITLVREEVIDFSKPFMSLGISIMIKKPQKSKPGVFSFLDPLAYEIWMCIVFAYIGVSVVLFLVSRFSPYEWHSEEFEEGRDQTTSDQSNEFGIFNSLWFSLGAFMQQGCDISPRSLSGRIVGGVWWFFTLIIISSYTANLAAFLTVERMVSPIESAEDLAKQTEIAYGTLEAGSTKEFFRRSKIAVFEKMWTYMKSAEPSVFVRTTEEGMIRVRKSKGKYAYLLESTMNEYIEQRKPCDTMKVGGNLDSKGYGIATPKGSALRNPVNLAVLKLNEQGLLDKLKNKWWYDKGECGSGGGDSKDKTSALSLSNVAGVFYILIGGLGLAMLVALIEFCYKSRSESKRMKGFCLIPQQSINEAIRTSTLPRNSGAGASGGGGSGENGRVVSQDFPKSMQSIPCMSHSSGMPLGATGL
Chain of AMPA receptor subunit GluA1 (P19490 19-907): as above
Chain of AMPA receptor subunit GluA2 (P19491 22-883): as the sequence (P19491 22-883) above

percent of GluA2 left in the unbound fraction after IP with GluA1 antibody [1] [%] | percent of GluA2 left in the unbound fraction after IP with GluA1 antibody [2] [%] | percent of GluA2 left in the unbound fraction after IP with GluA1 antibody [3] [%] | percent of GluA2 left in the unbound fraction after IP with GluA1 antibody [4] [%] | percent of GluA1 removed by IP with GluA2/3+GluA4 antibodies [5] [%] | percent of GluA1 complexed with GluA2 (the paper's estimate) [6] [%] | percent of GluA1 complexed with GluA2 (the paper's estimate) [7] [%] | Substance
62 | 55 | 65 | 53 |  |  |  | AMPA receptor subunit GluA2 (from UniProt P19491 22-883)
 |  |  |  | 93 | > 80 | > 80 | AMPA receptor subunit GluA1 (from UniProt P19490 19-907)
